This data set deals with the molecule itself. As to the kind of experiment: two-hybrid; MaMTH (mammalian membrane split-ubiquitin two-hybrid) in MaMTH-modified HEK293T cells; bait fused to Cub-GAL4, prey fused to Nub; GAL4-driven luciferase normalised to Renilla.

B1: human PFKFB4 as MaMTH fusions (PFKFB4-Cub-GAL4 bait; PFKFB4-Nub prey) (enzyme, UniProt Q16877 1-469, looked up)
chain: MASPRELTQNPLKKIWMPYSNGRPALHACQRGVCMTNCPTLIVMVGLPARGKTYISKKLTRYLNWIGVPTREFNVGQYRRDVVKTYKSFEFFLPDNEEGLKIRKQCALAALRDVRRFLSEEGGHVAVFDATNTTRERRATIFNFGEQNGYKTFFVESICVDPEVIAANIVQVKLGSPDYVNRDSDEATEDFMRRIECYENSYESLDEDLDRDLSYIKIMDVGQSYVVNRVADHIQSRIVYYLMNIHVTPRSIYLCRHGESELNLKGRIGGDPGLSPRGREFAKSLAQFISDQNIKDLKVWTSQMKRTIQTAEALGVPYEQWKVLNEIDAGVCEEMTYEEIQDNYPLEFALRDQDKYRYRYPKGESYEDLVQRLEPVIMELERQENVLVICHQAVMRCLLAYFLDKAAEQLPYLKCPLHTVLKLTPVAYGCKVESIFLNVAAVNTHRDRPQNVDISRPPEEALVTVPAHQ
notes: 6-phosphofructo-2-kinase/fructose-2,6-biphosphatase 4 (PFKFB4), human, inserted in-frame into the MaMTH bait or prey vectors; One molecule for the differently tagged copies of the same protein; The bait copy carries Cub-GAL4; The prey copy carries Nub at its N- or C-terminus (both were tested against the PFKFB4 bait); also called hPFKFB4; source: MaMTH-modified HEK293T, transfected, in cells; not …
On to B1, for which the “fold increase of luciferase expression over PFKFB4-Cub-GAL4 alone (Nub at the C-terminus of the prey)” value turned out to be 13 times and the “fold increase of luciferase expression over PFKFB4-Cub-GAL4 alone (Nub at the N-terminus of the prey)” value stood at 5 times.
